The values that follow come from patent US20110263816A1.

No end group written: not given here.

B1: K3a,eRh2 (peptide)
peptide: KISALKQKESALEQKISALEK
modifications: also: Rh2(OAc)2 dirhodium centre bound through two Glu side chains, places not given here
As to B1, the % conv. at 24 h (covalent modification with diazo 1, MALDI-TOF MS) in the assay with E3gX, X = Trp is > 95 % conv; with E3gX, X = Tyr, > 95 % conv; with E3gX, X = Arg it was 73 % conv; in the assay with E3gX, X = Lys, 8 % conv; in the assay with E3gX, X = Asn, 70 % conv; with E3gX, X = Gln it was > 95 % conv. Also, the % conv. at 24 h (covalent modification with diazo 1, MALDI-TOF MS) was > 95 % conv with E3gX, X = Phe; 28 % conv in the assay with E3gX, X = Ser; 78 % conv in the assay with E3gX, X = Cys; 76 % conv with E3gX, X = Glu; 53 % conv in the assay with E3gX, X = Asp; 17 % conv with E3gX, X = His.
